Values quoted from earlier work as cited in paper PMC7962812.

Target: Bax (Homo sapiens) (UniProt Q07812)
Sequence (Q07812 whole entry): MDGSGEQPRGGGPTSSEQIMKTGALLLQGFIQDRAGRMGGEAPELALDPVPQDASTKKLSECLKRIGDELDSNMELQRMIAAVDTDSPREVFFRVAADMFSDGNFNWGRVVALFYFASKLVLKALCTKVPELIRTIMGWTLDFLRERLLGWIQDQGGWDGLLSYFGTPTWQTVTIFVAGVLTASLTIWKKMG

Chain of Bcl-2 (P10415 whole entry): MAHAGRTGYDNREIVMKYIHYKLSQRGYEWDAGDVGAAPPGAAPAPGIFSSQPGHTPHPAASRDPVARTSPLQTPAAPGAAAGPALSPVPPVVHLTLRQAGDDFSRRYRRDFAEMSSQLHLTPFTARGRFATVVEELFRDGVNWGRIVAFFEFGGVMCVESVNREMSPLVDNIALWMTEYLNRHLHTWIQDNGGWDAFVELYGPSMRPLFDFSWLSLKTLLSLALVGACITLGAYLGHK

Kd: 35.8 nM
Substance: Bcl-2 (from UniProt P10415)
